Laboratory results reported in patent CN107522783A.

Target: Recombinant human IL-17A (Sino Biological, 12047-HNAS) (human) (UniProt Q16552)
Assay: indirect ELISA, human IL-17A coated (Table 7, not in this copy)

Chain of Recombinant human IL-17A (Sino Biological, 12047-HNAS) (human) (Q16552 24-155): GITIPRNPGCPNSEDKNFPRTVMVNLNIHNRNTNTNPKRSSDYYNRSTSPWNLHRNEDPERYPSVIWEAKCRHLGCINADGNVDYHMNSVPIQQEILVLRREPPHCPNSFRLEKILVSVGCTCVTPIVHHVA

- EC50 ratio to the humanized antibody: 3 fold
B1: 杂交瘤14F10/9F6产生的鼠源抗体 (antibody, V domains shown)
VH: QVQLQQSGPEVVRPGVSVKISCKGSGYTFTDYAMHWVKQSHAKSLEWIGVIGPYNDNTNYNQKFKGKATMTVDKSSSTAYMEIARLTSEDSAIYYCARGERYFDYWGQGTTLTVSS
VL: DIQMTQSSSYLSVSLGGRVTITCRASDHINNWLAWYQQKPGNAPRLLIYGATSLETGVPSRFSGSGSGKDYTLSITSLQTEDVATYYCQQYWTIPLTFGAGTKLELK
